The nature of the data set: soluble fraction after stress (log2 fold change); higher = more stays soluble; pooled small domains, quantitative proteomics. The settings on record: stress: 50 degC. The method, boiled down:
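Pooled custom libraries of small protein domains were each held under stress at 50°C. The read-out, high-throughput quantitative proteomics, tracked how much of each protein stayed soluble. This is reported as a base-two log fold change used to indicate aggregation propensity. Higher values mean more protein remains in solution.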

For “HMEALASESVKDKIRKIIDSEDPSRPMSDQRIKEMLKAANIDIARRTVTKYREAMNILSSTKRRQV”, the “soluble fraction (log2)” value is -0.272.

In the case of “HMSRSSQMVNFIRLLSQEKKVSVNSIFSSSVQLSDGIIVKINDFYYRVNLSLDQKTYSLVEVS”, the “soluble fraction (log2)” value is -0.486.

On to “HMPIMDSDDKYEALGIPQEWIAVVKKAGYQTVEALKAVENPNKLHQELSVMNKKEKLGLAGLTPEMVKAWL”, for which the “soluble fraction (log2)” value is 0.342.

With “HMGKDTLKLKKNAIPYDENGKKLTNLGYSYIKKTTVLNYYGTKIINGSTYYFLGDGVYIKAANVGTTSH”, the “soluble fraction (log2)” value was -2.23.

For “HMITTEEVLNRIRKKVDHPATIRELQKALSIADDDRHRFRRRIRTLVASGALVRIRGNRYGLPSK”, the “soluble fraction (log2)” value was -0.275.

With “HMERDVNQLTPRERDILKLIAQGLPNKMIARRLDITESTVKVHVKHMLKKMKLKSRVEAAVWVHQERI”, the “soluble fraction (log2)” value was -1.38.

“HMGDSEMPVSEVVRLAKLDQISSIEISGTKLTIITNNLETYTSRIEENSTIIEILQRAGVDIGGLEIYPHG”: the “soluble fraction (log2)” value is -0.492.

Regarding “HMVNPHPVYRSWGLLYVEARDGDSLESIAKEFGFSVKKLAKYNEVPKDYPLEAGDIVYLEKKKK”, the “soluble fraction (log2)” value is -1.59.

“HMGHTKLVVDIVEELKLEQGALLPILHAIQDELGYVPTKSVPFIADSLNLSRAEVHGVISFYHYFR”: the “soluble fraction (log2)” value is 0.15.

As to “HMTIFGWQQDETGKWYRNADGTFYENGWKEIDGAQYYFDENGYVTTGWLELDGKDYYFDEEGKYDSTKVR”, the “soluble fraction (log2)” value was -0.46.

Take “HMSDIDIDVENDRAALAIAGGKLNHLVGARGEVLDALQELTRLAVQTSLGERSRLMLDIDNFRSD”: the “soluble fraction (log2)” value is -0.00224.

“HMELIELTVTEEFEMARLDQFLAGHLTQSRTYIQKLIKAGQITINGNLITRVKVPVHYGDFILINIPDPE”: the “soluble fraction (log2)” value is -3.54.

“HMTESLVITVDPALHGLRLDRGLADALPDRSRSEVQRWIKEGRVQLHGAPAKPSLKLAAGDIVTIALPEE”: the “soluble fraction (log2)” value was 0.393.

As for “HMHNNTITLNKKTYVYTASGKKMSKYLGYTYINKGTTLNYYGTKNIKGKTFYYIGDHAYVNAANVGKVTN”, the “soluble fraction (log2)” value is -1.92.

With “HMAKRKTEKTSVLEEIDGVGKARARALLARFGGLSGVKAASPEELRTVRGITPEIAENIRRYFQ”, the “soluble fraction (log2)” value is 0.121.

For “HMSGEIPFPPAFKPSADHIAIASEKGINIETELLNFRDYHQARGTKLIDWNSAFRVWLRNAR”, the “soluble fraction (log2)” value was -0.144.

For “HMSLTTKSVEETLGITRQTLHNWIKEGLLPAPKKDFRNWYIWSDEDLENLRNIIEQKTLINNKKQAV”, the “soluble fraction (log2)” value is -0.133.

As for “HMIMTGSIQEKNGKYYTVLNIKDKNGKYKKKWQTTGLPVKGNKRKAEQILRRRIAEYEANQL”, the “soluble fraction (log2)” value is -0.436.

“HMNYTYTVPEGIRYLRADKALALAFPDHSRTALQRAFDSGLVTLRGVAIKRDQSVTALDTLEFAMPDI”: the “soluble fraction (log2)” value is -0.81.

For “HMATVGENIRRYRKAQNLSAAKLAEKVGLTQGAILHYERGIRTPGISQLEKIAHALNVSPRM”, the “soluble fraction (log2)” value was -0.0581.

Consider “HMDRAIAAHLEARVRDALKQLSPEQTRVIELFFFDNKTHAEIENDLKIPLGTVKSRLRLALNKLRASL”, for which the “soluble fraction (log2)” value was -1.96.

As to “HMSQPALSYAFAKAQGVIVTALGDVAEVARRKGSQPQALAEVRRIAGRPLALREVDDAAFDRLLQDHYARS”, the “soluble fraction (log2)” value is -0.243.

With “HMILNPADEEKMNLINFELQQRGLEINDKEMQYIFTHHSRDLNSLLNLAEKLDEISHQEKKSISINLIKKI”, the “soluble fraction (log2)” value was -0.0218.

Regarding “HMALKSGVIAHAVDDAVMRGLNVFTVSDDGSIVSMKDNDIVLGKDGKSPYSVSEWLEELKPNVPHWFG”, the “soluble fraction (log2)” value is -0.0243.

As for “HMHRNLSFEEEKEFLSAYTKQAEAGQIVDLNEMKAAYIEKVGHSIGGSQIYRMLERHGWRKVM”, the “soluble fraction (log2)” value is -0.312.

“HMKGALQIAIEEGFNWNLDKKYWNIVQSTVIAKRLGLKTTSGLKEAIEGMGGEYKRTKKARGYLVPTFKD”: the “soluble fraction (log2)” value was -2.31.

For “HMGDDYFTILGIERDATTDEIRSAYRRLSKKIHPDAQGSSALFRQVQEAYETLIDPSSRARYVAELNASQG”, the “soluble fraction (log2)” value was 0.113.

With “HMGRENGTVKWFNTSKGFGFITRDDGGDVFVHFRSIQGEGHRALQEGQRVSYVVANRDKGLQAEDVTILN”, the “soluble fraction (log2)” value turned out to be 0.131.

For “HMQNKRQEQLLALLAERRDYMTSRQLAEILQVSDRTIRSDVEAINRRSSPPPIESNVRQGYRLNPEA”, the “soluble fraction (log2)” value stood at 0.0852.

In the case of “HMNSKKETLLSYLYNHSTWSSRNDLSNFLNVSTRQVTNYINEINKNETIVLSSNKGYKINPKFIGKN”, the “soluble fraction (log2)” value was -0.611.

Take “HMSNVDYSQFKKDTVVEHTKFGRGIIIQTSGDGEDKIAAIAFKGLGVKRFSLAIAAASLKIIGKNDE”: the “soluble fraction (log2)” value is -0.0817.

For “HMKPDAAKREQLIDIALRLFSQQGIARTSLNAIAREAGVTPAMLHYYFNSREQLLDVMIEERFL”, the “soluble fraction (log2)” value was -3.09.

With “HMSTQYKTGHYKTTDALNLRASYSTSSNVLLTIPKGKTIVVTRVHNNEWGQVEYNGKTGWIYLEYTAYTES”, the “soluble fraction (log2)” value is 0.0697.

Consider “HMATVELELKPEELRAGMILTKDLISGTGMMLLNKGVTLDNVKVEAIQRYYQLDPPLHGVFALVHGK”, for which the “soluble fraction (log2)” value is -0.503.

Turning to “HMSVSVNAPMPGNILDVRAKTGESIQKGQVIVILEAMKMENEIMAPQDGKISSINTSKGSTVNSGDLLFTM”, the “soluble fraction (log2)” value is -0.155.

For the sequence “HMSEISAEAGKRIRYFRKSRSMTLEELAAVIHKSKATLSKYETGEISIDLDTLYDLAVALQVRAEQLLPAS”, the “soluble fraction (log2)” value was -2.29.

In the case of “HMRHDSEGYYRLIGVPPDADDAELKEAAKKRLMEAHPDHGGSEDEFVEVYRAYRTLTDPSARAEYDARP”, the “soluble fraction (log2)” value was 0.307.

In the case of “HMIQYRKILELHFKDISQRTISTSVGSSRNTVSDVIKRSEQLGLERLTDNMNNRWLEEFLFPEKQ”, the “soluble fraction (log2)” value is -4.17.

With “HMPEPPRVGETLAALRQDRALSLDELSRQAGVSKSMLSQIERNQANPTVAVVWRLANALGVPMAELLGA”, the “soluble fraction (log2)” value was -0.108.

In the case of “HMTDLEDDEKKVYRLIVESGEGIDFDTLSERSGFSATELPSILLFLMMKEMIDELPGKIYRYSE”, the “soluble fraction (log2)” value is 0.0814.

Turning to “HMGDGRVGVITASIAYEYAKEVFPEGTSFLKLGLTFPLPMDLIRDFASKVEKLYVIEELEPL”, the “soluble fraction (log2)” value is -0.215.

With “HMASELQQVQALLESQRYNEALILIETTIGKGASESTELLFARADVFASSGRHDEAEQAYREL”, the “soluble fraction (log2)” value is -0.0838.

As for “HMEDWTPERFVGAFVSGGPALRDEILLAATKDLSHAQATRLLKLAEARGLVHRSQPGPSERVRFVVARK”, the “soluble fraction (log2)” value is -0.258.

Take “HMEEFGRRLKERMIDKNMTEAELAQKTELWSSILTSYLKGERFPGYYTLLRIAEALDVSIDFLLGLRDEPE”: the “soluble fraction (log2)” value is -1.54.

Consider “HMFSAASSQISSYVRSVVDKAQTYEQAYEILAKNPLGFKLDALEDELFRIIANAEILGADDDE”, for which the “soluble fraction (log2)” value is -0.887.

As to “HMYQRLPFSFANRYKMVLESQHPERAPILYYVEPLKSAAIIEVSRVVKNGFTPQAITLDEFDKKLTDAYQR”, the “soluble fraction (log2)” value was -0.908.

“HMRSGFAFSEEEIKHLDNIVSPLLIKGQSIHHISIFHKDEVMMSERTLYSYVNNGLFSARNIDMPRTVRMR”: the “soluble fraction (log2)” value was found to be 0.14.

With “HMFDVNSMIAANIVAILKKQNRKQIDLAGALQTNKQTISKMLNGSRMINAIELKRIAEFLGVKMEELTKL”, the “soluble fraction (log2)” value is -0.635.

On to “HMAQWGFNGSEAGDLSFQQGDVIEVVEKVKDDWWRGRVLGSTEIGLFPS”, for which the “soluble fraction (log2)” value is -0.225.

As for “HMENRREYQKAIDYLSDQIRAGTLTVGSRLPTERAIAEALGISRNSTREALRTMENMGMIESKQGSGHYLT”, the “soluble fraction (log2)” value is -0.00154.

As to “HMGTVKWFNATKGFGFIVPSDGGKDVFVHITAVQKAGLQGLNEGQKVSYEVAMERGKAAATNLR”, the “soluble fraction (log2)” value is -0.726.

Regarding “HMNDITVNVEDSKLIVTSNNPEKLPLYIMDIQGHILDKSEITAGTYSFPISDRGTYIVRIGENVYKVI”, the “soluble fraction (log2)” value was 0.0386.

In the case of “HMGGTAGKINAIGVNFRTGPSTSYTSLGLLGKDTAVTVIGTSGKWYKVTIVSTGKTGYVYATYVNLTP”, the “soluble fraction (log2)” value was -1.81.

“HMNTISEADAKRIALERAGLTAADYVKVDYDQDDNEYEVEMRSGNTEYEVKISGSTGAVLEYDSETD”: the “soluble fraction (log2)” value worked out at 0.149.

As for “HMAIADQPISAEHFDKLRQVLNSNTQETIASAKQHWASISNNAEFTNENVTRTLLEEMLAFIKSAS”, the “soluble fraction (log2)” value came out at 0.307.

Consider “HMQPLRQGDFVTSEVVKVQDGTAVLRTAQGTLLSASLTGNLGLLPGDRVETVVVEASPGRFVLRVLDIIR”, for which the “soluble fraction (log2)” value was -0.15.

For the sequence “HMGVLGVDALAAAAEVSVDTVRYYQHLGLLEPPRREGRRAVYGPSHLARMGEIRRLAAAGFTLDQIRQLAE”, the “soluble fraction (log2)” value is -2.1.

Regarding “HMRRDEDLAHGRELLEKELRKQGLEVSENLKQDKLLEGAKRLGFLEAEDLVVAVGSGKVSAGMAVGRIIG”, the “soluble fraction (log2)” value is 0.16.

As for “HMPMINLYQRLNLPPTASRAEIEAALAQYRSELSTAEIRGVQEWLLVNEVRHRYDAKLRQEQPSFFI”, the “soluble fraction (log2)” value is -0.471.

Regarding “HMQYKVMDVTVDGNPVIEFQNLNSKIKWIENNPDAIIQNIKTSSFEADQKRIVGTSRGPFWIVIKPDF”, the “soluble fraction (log2)” value is -0.144.

On to “HMLSLDDAAFERYDLTMREREVLLLLLNRLTYEEIAERLFISTNTVKTHVGNVYKKTGVSSRKELVSK”, for which the “soluble fraction (log2)” value was -1.08.

As to “HMYMKLSVKDAALFLSVSPETVYRWVKQEEIPYHTVNDQLRFNRAELLEWATARSLEVSPDLFVP”, the “soluble fraction (log2)” value was -3.04.

Regarding “HMQNEKLSYFVTETIVTERADLFITKKFPQFSRSQIQKLINSGNITINSNPIKASTEIINKDNIEITIPV”, the “soluble fraction (log2)” value is -1.14.

Consider “HMFLTPLEEARLVIEEIVIPKNIAVDLSPRPSALRKQQHELIAHYQLKSFSVGNERTKRLRILPKVI”, for which the “soluble fraction (log2)” value is -0.114.

Take “HMAFEDYAGEYRSAADFAESLHEDTGTEIPESLRYYIDWQALARDMALNGEIMVFQTGFDEVHIFWS”: the “soluble fraction (log2)” value is -0.517.

On to “HMGRYATVPDVVGSTPEVARELIRSEGLRYVLSEETVYSDSDTGTVGRTDPESGTRMSADDEVVVYLS”, for which the “soluble fraction (log2)” value was found to be 0.0355.

“HMDYSWNFFIGFSVVDKVAGNLGTIEEIDDKTINTLFLVKNDDEDLIIPATEDFVEKIDAKKRILYLNLPE”: the “soluble fraction (log2)” value is -1.56.

For the sequence “HMGGSVYTVQKGDTLWSIAKEQLGSPLRYAEIYDLNKDVIEEAARGRGKKDSSNGHWLVVGTSLQIPEAT”, the “soluble fraction (log2)” value turned out to be 0.42.

Regarding “HMDYARYGLSEKEAELIELIAQGMNNKEISAEIYLSEGTVRNYISELLEKLELRDRTQLAVYYYTHR”, the “soluble fraction (log2)” value is -2.71.

These data come from the domain aggregation screens of Martell et al. (2025).
